Data set [1] deals with T1, human GLP-1 receptor (Homo sapiens, UniProt P43220).
T1 construct: expressed in transfected cells; host or cells: membranes from BHK cells, parent line BHKTS13, clone FCW467-12A
Description: GLP-1 receptor binding, competitive 125I-GLP-1 SPA binding assay on isolated membranes. The note with it: low HSA (max. 0.001% final assay concentration).

Data set [2] concerns the target T1, human GLP-1 receptor. As to the kind of experiment: In vitro potency, CRE luciferase reporter gene assay in BHK cells expressing the human GLP-1 receptor.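 Also: firefly luciferase luminescence read after 3 h incubation at 37 °C, compounds tested in an eight-point series from 0.01 pM to 100 nM.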 It counts as cell-based. The note with it: average of duplicates. Background: Reporter assays use an easily measured gene product as a stand-in for the process of interest.
Target sequence in this assay (P43220 24-463): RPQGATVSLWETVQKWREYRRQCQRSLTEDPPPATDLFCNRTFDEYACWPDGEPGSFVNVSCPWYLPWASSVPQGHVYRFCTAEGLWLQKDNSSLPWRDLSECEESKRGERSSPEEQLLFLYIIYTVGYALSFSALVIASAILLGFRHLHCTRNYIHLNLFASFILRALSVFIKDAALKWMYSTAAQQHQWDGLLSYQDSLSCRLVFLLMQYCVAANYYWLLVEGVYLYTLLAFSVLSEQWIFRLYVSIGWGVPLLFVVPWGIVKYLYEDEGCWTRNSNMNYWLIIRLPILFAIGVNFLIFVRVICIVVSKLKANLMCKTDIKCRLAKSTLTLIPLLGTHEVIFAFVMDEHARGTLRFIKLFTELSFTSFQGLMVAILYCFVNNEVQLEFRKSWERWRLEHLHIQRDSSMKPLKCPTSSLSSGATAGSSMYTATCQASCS
Description: The in vitro potency is the measure of human GLP-1 receptor activation in a whole cell assay.
In vitro potency was determined by measuring the response of the human GLP-1 receptor in a reporter gene assay. The assay was performed in a stably transfected BHK cell line that expresses the human GLP-1 receptor and contains the DNA for the cAMP response element (CRE) coupled to a promoter and the gene for firefly luciferase (CRE luciferase). When the human GLP-1 receptor is activated it results in the production of cAMP, which in turn results in the luciferase protein being expressed. When assay incubation is completed the luciferase substrate (luciferin) is added and the enzyme converts luciferin to oxyluciferin to produce bioluminescence. The luminescence is measured as the readout for the assay.
An increase of the in vitro potency, EC50 value, in the presence of serum albumin would indicate an affinity to serum albumin and represents a method to predict a protracted pharmacokinetic profile of the test substance in animal models.
The cells were cultured at 5% CO2 in Cell Culture Medium. They were aliquoted and stored in liquid nitrogen. Before each assay an aliquot is taken up and washed twice in PBS before being suspended at the desired concentration in the assay specific buffer. For 96-well plates the suspension was made to give a final concentration of 5×10^3 cells/well.
Assay Medium consisted of DMEM w/o phenol red, 10 mM Hepes and 1× Glutamax. The 1% Assay Buffer consisted of 2% ovalbumin, 0.2% Pluronic F-68 and 2% HSA in Assay Medium. The 0% Assay Buffer consisted of 2% ovalbumin and 0.2% Pluronic F-68 in Assay Medium.
1) Cell stocks were thawed in a 37° C. water bath.
2) Cells were washed three times in PBS.
3) The cells were counted and adjusted to 5×10^3 cells/50 μl (1×10^5 cells/ml) in Assay Medium. A 50 μl aliquot of cells was transferred to each well in the assay plate.
4) Stocks of the test compounds and reference compounds were diluted to a concentration of 0.2 pM in 0% Assay Buffer for the 0% HSA CRE luciferase assay and 1% Assay Buffer for the 1% HSA CRE luciferase assay. […] Compounds were tested at the following final concentrations: 1×10^−7 M, 1×10^−8 M; 1×10^−9 M, 1×10^−10 M, 1×10^−11 M, 1×10^−12 M, 1×10^−13 M, and 1×10^−14 M. 6) The assay plate was incubated for 3 h in a 5% CO2 incubator at 37° C. […] 8) A 100 μl aliquot of steadylite plus reagent was added to each well of the assay plate (reagent was light sensitive). 9) Each assay plate was covered with aluminum foil to protect it from light and shaken for 30 min at room temperature. 10) Each assay plate was read in a Packard TopCount NXT instrument. Calculations and Results
The data from the TopCount instrument were transferred to GraphPad Prism software. The software performs a non-linear regression (log(agonist) vs response).
A minimum of two replicates was measured for each sample on separate assay plates. The reported values are averages of the duplicates. For some examples more than one assay was run and in this case the data reported are the averages of the averaged duplicates.
Data set [3] is described as follows: Pharmacokinetic study in mini pigs after i.v. administration. The note with it: female, Göttingen, pig, plasma, iv, 2 nmol/kg; read-out: Minipig iv PK, t½ (converted). The format is in vivo.
Description: The purpose of this study is to determine the protraction in vivo of the GLP-1 derivatives after i.v. administration to mini pigs, i.e. the prolongation of their time in the body and thereby their time of action. This was done in pharmacokinetic (PK) studies, where the terminal half-life of the derivative in question was determined. By terminal half-life is generally meant the period of time it takes to halve a certain plasma concentration, measured after the initial distribution phase.
Female Göttingen mini pigs obtained from Ellegaard Göttingen Minipigs (Dalmose, Denmark) at approximately 5 months of age and weighing approximately 10 kg were used in the studies. The mini pigs were housed in pens with straw as bedding, four to six together in each pen and fed restrictedly once or twice daily with Altromin 9023 mini pig diet (Chr. Petersen A/S, DK-4100 Ringsted). The pigs were used for repeated pharmacokinetic studies with a suitable wash-out period between successive GLP-1 derivative dosings. An acclimatisation period of 1 week was allowed during which time the mini pigs were trained to be fixated on the back for blood sampling and in slings for i.v. dosing. All handling, dosing and blood sampling of the animals was performed by trained and skilled staff.
The GLP-1 derivatives were dissolved in 50 mM sodium phosphate, 70 mM sodium chloride, 0.05% tween 80, pH 7.4 to a concentration of approximately 20 nmol/ml. Intravenous injections (the volume corresponding to usually 2 nmol/kg, for example 0.1 ml/kg) of the compounds were given as intravenous injections via a Venflon inserted in an ear vein, while the animals were placed un-anaesthetised in a sling. The dose volume was 0.1 ml/kg, and blood was sampled at predefined time points for up till 13 days post dosing (samples were taken with a syringe from a jugular vein). Blood samples (for example 0.8 ml) were collected in EDTA buffer (8 mM) and then centrifuged at 4° C. and 2000 G for 10 minutes.
Individual plasma concentration-time profiles were analysed by a non-compartmental model in WinNonlin v. […] 6.2 or 6.3 (Pharsight Inc., Mountain View, Calif., USA), or other relevant software for PK analysis, and the resulting terminal half-lives determined.
In data set [4] the target is T2, human GLP-1 receptor (human, UniProt P43220). As to the kind of experiment: displacement of [125I]-GLP-1-(7-36)NH2 from membranes with human GLP-1 receptor, SPA, high HSA (2.0%). (Displacement assays read how much labelled ligand stays bound in the presence of the test substance.)
Description: (§1) Each derivative is added in a series of concentrations to isolated membranes containing the human GLP-1 receptor and displacement of the labelled ligand is monitored. The receptor binding is reported as the concentration at which half of the labelled ligand is displaced from the receptor, the $IC50$ value.
(§2) For the receptor binding assay in the presence of low HSA (0.001%) 50 μl of the assay buffer was added to each well of an assay plate. […] For the receptor binding assay in the presence of high HSA (2.0%) 50 μl of the 8% albumin stock was added to each well of an assay plate. […] Cell membrane aliquots were thawed and diluted to their working concentration. Fifty μl were added to each well in the assay plate. […] WGA SPA beads were suspended in assay buffer at 20 mg/ml. The suspension was diluted to 10 mg/ml in assay buffer just prior to addition to the assay plate. Fifty μl were added to each well in the assay plate. […] A 25 μl aliquot was reserved for measuring total counts/well. […] The assay plate was incubated for 2 h at 30° C. […] The assay plate was centrifuged for 10 min. […] The assay plate was read in a Packard TopCount NXT instrument.
The target in data set [5] is T2, human GLP-1 receptor. Description: displacement of [125I]-GLP-1-(7-36)NH2 from membranes with human GLP-1 receptor, SPA, low HSA (0.001%).
Description: as §1, §2
Data set [6] deals with T2, human GLP-1 receptor.
Target sequence in this assay (P43220 24-463): as above
Where [7] appears, read: EC50/pM (1% HSA), 1% HSA final assay concentration.
[8] abbreviates: 0% HSA, read-out: EC50/pM (0% HSA).

Where two headings read alike, the source gives them in different places. *1 amine or outer side, *2 acyl side, *3 side chain or, on linkers, in order; H or OH if unused. Where a SMILES comes first, the peptide text is derived from it. Where no end group is shown, it is not given here. Side-chain parts run from the residue outwards. [ ]: non-standard residue; d: D form. The star is where a group is joined. Undecanoyl(11-OPh(4-COOH)) = O=C(O)c1ccc(OCCCCCCCCCCC(=O)*)cc1; Decanoyl(10-O(3-COOH-Ph)) = O=C(O)c1cccc(OCCCCCCCCCC(=O)*)c1; γGlu = O=C(O)[C@H](CCC(=O)[*:2])N[*:1]; C14 diacid = O=C(O)CCCCCCCCCCCCC(=O)*; AEEA = NCCOCCOCC(=O)O; Aib = CC(C)(N)C(=O)O

In turn, `CC[C@H](C)[C@H](NC(=O)[C@H](Cc1ccccc1)NC(=O)[C@H](CCC(=O)O)NC(=O)[C@H](CCCNC(=N)N)NC(=O)[C@H](C)NC(=O)[C@H](C)NC(=O)[C@H](CCC(N)=O)NC(=O)[C@H](CCC(=O)O)NC(=O)[C@H](CCC(=O)O)NC(=O)[C@H](CC(C)C)NC(=O)[C@H](Cc1ccc(O)cc1)NC(=O)[C@H](CO)NC(=O)[C@H](CO)NC(=O)[C@@H](NC(=O)[C@H](CC(=O)O)NC(=O)[C@H](CO)NC(=O)[C@@H](NC(=O)[C@H](Cc1ccccc1)NC(=O)[C@@H](NC(=O)CNC(=O)[C@H](CCC(=O)O)NC(=O)C(C)(C)NC(=O)[C@@H](N)Cc1c[nH]cn1)[C@@H](C)O)[C@@H](C)O)C(C)C)C(=O)N[C@@H](C)C(=O)N[C@@H](Cc1c[nH]c2ccccc12)C(=O)N[C@@H](CC(C)C)C(=O)N[C@H](C(=O)N[C@@H](CCCNC(=N)N)C(=O)NCC(=O)N[C@@H](CCCCNC(=O)COCCOCCNC(=O)COCCOCCNC(=O)CC[C@H](NC(=O)CCCCCCCCCOc1ccc(C(=O)O)cc1)C(=O)O)C(=O)N[C@@H](CCCCNC(=O)COCCOCCNC(=O)COCCOCCNC(=O)CC[C@H](NC(=O)CCCCCCCCCOc1ccc(C(=O)O)cc1)C(=O)O)C(=O)O)C(C)C` [Example 3, N{Epsilon-36}-[2-[2-[2-[[2-[2-[2-[[(4S)-4-carboxy-4-[10-(4-carboxyphenoxy)decanoylamino]butanoyl]amino]ethoxy]ethoxy]acetyl]amino]ethoxy]ethoxy]acetyl], N{Epsilon-37}-[2-[2-[2-[[2-[2-[2-[[(4S)-4-carboxy-4-[10-(4-carboxyphenoxy)decanoylamino]butanoyl]amino]ethoxy]ethoxy]acetyl]amino]ethoxy]ethoxy]acetyl]-[Aib8,Glu22,Arg26,Arg34,Lys36,Lys37]-GLP-1-(7-37)-peptide] came in with an IC50 on human GLP-1 receptor [1] (IC50/nM (low HSA)) of 0.19 nM. For the same molecule, the EC50 turned out to be 1.2 pM on human GLP-1 receptor [2] (EC50/pM (0% HSA), 0% HSA) and 28 pM at human GLP-1 receptor [2] (setting [7]). For the same molecule, the half-life in data set [3] is 71 h.

Consider `CC[C@H](C)[C@H](NC(=O)[C@H](Cc1ccccc1)NC(=O)[C@H](CCC(=O)O)NC(=O)[C@H](CCCNC(=N)N)NC(=O)[C@H](C)NC(=O)[C@H](C)NC(=O)[C@H](CCC(N)=O)NC(=O)[C@H](CCC(=O)O)NC(=O)[C@H](CCC(=O)O)NC(=O)[C@H](CC(C)C)NC(=O)[C@H](Cc1ccc(O)cc1)NC(=O)[C@H](CO)NC(=O)[C@H](CO)NC(=O)[C@@H](NC(=O)[C@H](CC(=O)O)NC(=O)[C@H](CO)NC(=O)[C@@H](NC(=O)[C@H](Cc1ccccc1)NC(=O)[C@@H](NC(=O)CNC(=O)[C@H](CCC(=O)O)NC(=O)C(C)(C)NC(=O)[C@@H](N)Cc1c[nH]cn1)[C@@H](C)O)[C@@H](C)O)C(C)C)C(=O)N[C@@H](C)C(=O)N[C@@H](Cc1c[nH]c2ccccc12)C(=O)N[C@@H](CC(C)C)C(=O)N[C@H](C(=O)N[C@@H](CCCNC(=N)N)C(=O)NCC(=O)N[C@@H](CCCCNC(=O)COCCOCCNC(=O)COCCOCCNC(=O)COCCOCCNC(=O)CC[C@H](NC(=O)CCCCCCCCCCCCC(=O)O)C(=O)O)C(=O)N[C@@H](CCCCNC(=O)COCCOCCNC(=O)COCCOCCNC(=O)COCCOCCNC(=O)CC[C@H](NC(=O)CCCCCCCCCCCCC(=O)O)C(=O)O)C(=O)O)C(C)C` [Example 12], for which the IC50 on human GLP-1 receptor [1] (read-out: IC50/nM (low HSA)) was 0.2 nM. Moreover, the EC50 at human GLP-1 receptor [2] (setting [8]) worked out at 1.2 pM; on human GLP-1 receptor [2] (setting [7]), 10 pM. In data set [3], the half-life was 80 h.

At human GLP-1 receptor [1] (IC50/nM (low HSA)), `CC[C@H](C)[C@H](NC(=O)[C@H](Cc1ccccc1)NC(=O)[C@H](CCC(=O)O)NC(=O)[C@H](CCCNC(=N)N)NC(=O)[C@H](C)NC(=O)[C@H](C)NC(=O)[C@H](CCC(N)=O)NC(=O)[C@H](CCC(=O)O)NC(=O)[C@H](CCC(=O)O)NC(=O)[C@H](CC(C)C)NC(=O)[C@H](Cc1ccc(O)cc1)NC(=O)[C@H](CO)NC(=O)[C@H](CO)NC(=O)[C@@H](NC(=O)[C@H](CC(=O)O)NC(=O)[C@H](CO)NC(=O)[C@@H](NC(=O)[C@H](Cc1ccccc1)NC(=O)[C@@H](NC(=O)CNC(=O)[C@H](CCC(=O)O)NC(=O)C(C)(C)NC(=O)[C@@H](N)Cc1c[nH]cn1)[C@@H](C)O)[C@@H](C)O)C(C)C)C(=O)N[C@@H](C)C(=O)N[C@@H](Cc1c[nH]c2ccccc12)C(=O)N[C@@H](CC(C)C)C(=O)N[C@H](C(=O)N[C@@H](CCC(N)=O)C(=O)NCC(=O)N[C@@H](CCCCNC(=O)COCCOCCNC(=O)COCCOCCNC(=O)CC[C@H](NC(=O)CCCCCCCCCCOc1ccc(C(=O)O)cc1)C(=O)O)C(=O)N[C@@H](CCCCNC(=O)COCCOCCNC(=O)COCCOCCNC(=O)CC[C@H](NC(=O)CCCCCCCCCCOc1ccc(C(=O)O)cc1)C(=O)O)C(=O)O)C(C)C` [Example 7] (H-H[Aib]EGTFTSDVSSYLEEQAAREFIAWLVQGK([AEEA-AEEA-γGlu-Undecanoyl(11-OPh(4-COOH))])K([AEEA-AEEA-γGlu-Undecanoyl(11-OPh(4-COOH))])-OH; N-terminus and C-terminus assumed) registered an IC50 of 0.47 nM. For the same molecule, the EC50 on human GLP-1 receptor [2] (EC50/pM (0% HSA), 0% HSA) was 1.5 pM; on human GLP-1 receptor [2] (setting [7]), 143 pM. Further, the half-life in data set [3] was 107 h.

Regarding `CC[C@H](C)[C@H](NC(=O)[C@H](Cc1ccccc1)NC(=O)[C@H](CCC(=O)O)NC(=O)[C@H](CCCNC(=N)N)NC(=O)[C@H](C)NC(=O)[C@H](C)NC(=O)[C@H](CCC(N)=O)NC(=O)[C@H](CCC(=O)O)NC(=O)[C@H](CCC(=O)O)NC(=O)[C@H](CC(C)C)NC(=O)[C@H](Cc1ccc(O)cc1)NC(=O)[C@H](CO)NC(=O)[C@H](CO)NC(=O)[C@@H](NC(=O)[C@H](CC(=O)O)NC(=O)[C@H](CO)NC(=O)[C@@H](NC(=O)[C@H](Cc1ccccc1)NC(=O)[C@@H](NC(=O)CNC(=O)[C@H](CCC(=O)O)NC(=O)C(C)(C)NC(=O)[C@@H](N)Cc1c[nH]cn1)[C@@H](C)O)[C@@H](C)O)C(C)C)C(=O)N[C@@H](C)C(=O)N[C@@H](Cc1c[nH]c2ccccc12)C(=O)N[C@@H](CC(C)C)C(=O)N[C@H](C(=O)N[C@@H](CCCNC(=N)N)C(=O)NCC(=O)N[C@@H](CCCCNC(=O)COCCOCCNC(=O)CC[C@H](NC(=O)CC[C@H](NC(=O)CCCCCCCCCCCCC(=O)O)C(=O)O)C(=O)O)C(=O)N[C@@H](CCCCNC(=O)COCCOCCNC(=O)CC[C@H](NC(=O)CC[C@H](NC(=O)CCCCCCCCCCCCC(=O)O)C(=O)O)C(=O)O)C(=O)O)C(C)C` [Example 13, N{Epsilon-36}-[2-[2-[2-[[(4S)-4-carboxy-4-[[(4S)-4-carboxy-4-(13-carboxytridecanoylamino)butanoyl]amino]butanoyl]amino]ethoxy]ethoxy]acetyl], N{Epsilon-37}-[2-[2-[2-[[(4S)-4-carboxy-4-[[(4S)-4-carboxy-4-(13-carboxytridecanoylamino)butanoyl]amino]butanoyl]amino]ethoxy]ethoxy]acetyl]-[Aib8,Glu22,Arg26,Arg34,Lys36,Lys37]-GLP-1-(7-37)-peptide], the IC50 on human GLP-1 receptor [1] (read-out: IC50/nM (low HSA)) is 0.47 nM. Moreover, the figures for the EC50 at human GLP-1 receptor [2] (setting [8]) and on human GLP-1 receptor [2] (setting [7]) were 1.3 pM and 18 pM, respectively. Besides, in data set [3], the half-life was 98 h.

B1: GLP-1 derivative of Example 21 (peptide)
peptide: H[Aib]EGTFTSDVSSYLEEQAAREFIAWLVRGK([AEEA-AEEA-γGlu-γGlu-C14 diacid])K([AEEA-AEEA-γGlu-γGlu-C14 diacid])
Take B1: the IC50 in the data set with human GLP-1 receptor [4] stood at 89 nM. This molecule also gave an IC50 with human GLP-1 receptor [5] of 0.42 nM. Further, in the data set with human GLP-1 receptor [6], the EC50/pM (0% HSA) was determined as 5.6 pM and the EC50/pM (1% HSA) came out at 13 pM.

B2: GLP-1 derivative of Example 17 (peptide)
peptide: HGEGTFTSDVSSYLEEQAAREFIAWLVRGK([AEEA-AEEA-γGlu-Undecanoyl(11-OPh(4-COOH))])K([AEEA-AEEA-γGlu-Undecanoyl(11-OPh(4-COOH))])
With B2, the figures for the IC50 with human GLP-1 receptor [4] and in the data set with human GLP-1 receptor [5] were 536 nM and 0.9 nM, respectively. Moreover, the EC50/pM (0% HSA) with human GLP-1 receptor [6] stood at 14 pM. Further, the EC50/pM (1% HSA) with human GLP-1 receptor [6] is 199 pM.

B3: GLP-1 derivative of Example 15 (peptide)
peptide: H[Aib]EGTFTSDVSSYLEEQAAREFIAWLVRGK([AEEA-AEEA-γGlu-Decanoyl(10-O(3-COOH-Ph))])K([AEEA-AEEA-γGlu-Decanoyl(10-O(3-COOH-Ph))])
For B3, in the data set with human GLP-1 receptor [4], the IC50 was determined as 126 nM. Also, the IC50 in the data set with human GLP-1 receptor [5] stood at 0.38 nM. Besides, in the data set with human GLP-1 receptor [6], the EC50/pM (0% HSA) came out at 6.1 pM and the EC50/pM (1% HSA) was 44 pM.

B4: GLP-1 derivative of Example 1 (peptide)
peptide: H[Aib]EGTFTSDVSSYLEEQAAREFIAWLVRGKK
modifications: not fully specified (residues 30, 31)
Molecule B4 gave an IC50 with human GLP-1 receptor [4] of 135 nM. In addition, in the data set with human GLP-1 receptor [5], the IC50 is 0.21 nM. In addition, in the data set with human GLP-1 receptor [6], the EC50/pM (0% HSA) came to 1.2 pM and the EC50/pM (1% HSA) turned out to be 136 pM.

B5: GLP-1 derivative of Example 27 (peptide)
peptide: H[Aib]EGTFTSDVSSYLEEQAAREFIEWLVRGK([AEEA-AEEA-γGlu-Decanoyl(10-O(3-COOH-Ph))])K([AEEA-AEEA-γGlu-Decanoyl(10-O(3-COOH-Ph))])
B5: the IC50 with human GLP-1 receptor [4] amounted to 478 nM. The molecule also displayed an IC50 with human GLP-1 receptor [5] of 0.66 nM. In the data set with human GLP-1 receptor [6], this molecule came in with an EC50/pM (0% HSA) of 13 pM and an EC50/pM (1% HSA) of 105 pM.

B6: GLP-1 derivative of Example 20 (peptide)
peptide: H[Aib]EGTFTSDVSSYLEEQAAREFIAWLVRGK([AEEA-AEEA-AEEA-AEEA-γGlu-C14 diacid])K([AEEA-AEEA-AEEA-AEEA-γGlu-C14 diacid])
B6 registered an IC50 with human GLP-1 receptor [5] of 0.81 nM. For the same molecule, in the data set with human GLP-1 receptor [6], the EC50/pM (0% HSA) is 2.7 pM and the EC50/pM (1% HSA) came out at 5.8 pM.

The values are drawn from patent publication US10689429B2, “Double-acylated GLP-1 compounds” (Novo Nordisk A/S, priority 2014, dated 2020).
